These are literature values, as cited in publication PMC10317158.

For orientation: Kd means the equilibrium constant for the complex coming apart.

Series [1] deals with RNA polymerase II CTD pSer2 peptide CTD (Saccharomyces cerevisiae) (UniProt P04050).
The target in series [2] is Sen1 NIM2 (Saccharomyces cerevisiae) (UniProt Q00416).
Series [3] concerns the target Mpp6 NIM (Saccharomyces cerevisiae) (UniProt P53725).
Series [4] has as its target RNA polymerase II CTD pSer2/5 peptide CTD (Saccharomyces cerevisiae) (UniProt P04050).
The target of series [5] is RNA polymerase II CTD pThr4 peptide CTD (Saccharomyces cerevisiae) (UniProt P04050).
The target of series [6] is RNA polymerase II CTD pSer2/7 peptide CTD (Saccharomyces cerevisiae) (UniProt P04050).

As for Pcf11 CID (from UniProt P39081), in series [1], the dissociation constant (Kd) was 115 µM.
With Nrd1 CID (from UniProt P53617), the Kd in series [2] was 1750 nM; in series [3] it was 13.6 µM; in series [4], 16 µM.
For Rtt103 CID (from UniProt Q05543), the Kd in series [5] was 6 µM; in series [6] it was 1600 nM.
